± gives the standard deviation of the averaged measurements.
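Also: ATP exposure 15 min at 22 °C before imaging.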

This data set relates to ATP. The data set can be described thus: switch fluorescence ratio, 500 uM ATP over buffer (Cy3 cluster intensity, sum of 5 cycles each) (fold (ratio)); higher = stronger signal-on switching upon ATP binding; sequences stand for … in TCGTCGGCAGCGTCAGATGTGTATAAGAGACAGTTTTTTTTTTTTTTTTTTTTTTTTT…TC. The following applies: aptamer strand: ATP DNA aptamer (quencher-CACCTGGGGGAGTATTGCGGAGGAAGG + anchor), 100 nM annealed; ATP concentration: 500 uM. Summed up: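 Per cluster, summed Cy3 intensity from the target cycles was divided by that from the buffer cycles to give the fluorescence ratio, then averaged per switch-domain sequence. Clusters outside 100-1000 RFU were excluded. The Cy3-labelled switching-strand clusters, on a modified Illumina MiSeq flow-cell, were annealed to 100 nM quencher-labelled ATP aptamer and imaged in selection buffer, then after 15 min with 500 uM ATP at 22 °C, for five cycles with NaOH stripping and re-annealing between them.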
With CAGGAATAGG, the switch fluorescence ratio turned out to be 1.03 ± 0.012.

As to CAGGGGGTAG, the switch fluorescence ratio was determined as 1.01 ± 0.027.

In the case of GGAGATATGT, the switch fluorescence ratio was determined as 0.987 ± 0.026.

GTTGAAAGGG: the switch fluorescence ratio stood at 1.03 ± 0.027.

As to GGGTGGGTGT, the switch fluorescence ratio was found to be 1.05 ± 0.057.

In the case of TTGTTTGCGA, the switch fluorescence ratio is 0.999 ± 0.01.

As to TAACTAGGAG, the switch fluorescence ratio amounted to 1.12 ± 0.16.

As to TATATTTTGG, the switch fluorescence ratio was 1.02 ± 0.074.

Regarding TCAGCGACTT, the switch fluorescence ratio amounted to 1.01 ± 0.031.

ATTGCTATTC: the switch fluorescence ratio worked out at 1.03 ± 0.014.

As to CAAAAAGTTT, the switch fluorescence ratio was determined as 1.05 ± 0.097.

With CCAGGTATAA, the switch fluorescence ratio was 1.06 ± 0.041.

Take GTGTCAATTA: the switch fluorescence ratio came to 1.01 ± 0.021.

As to TTGGTGGCGT, the switch fluorescence ratio is 0.995 ± 0.01.

As to TGATTCGAGC, the switch fluorescence ratio is 1.003 ± 0.0058.

As for CTGGGGGTTG, the switch fluorescence ratio turned out to be 0.989 ± 0.044.

On to GCATCTTGGG, for which the switch fluorescence ratio is 1 ± 0.029.

As to GGGGCAAGGG, the switch fluorescence ratio was 1.28 ± 0.28.

Turning to TTGGTGTAAG, the switch fluorescence ratio amounted to 1.0001 ± 0.00079.

For CGGTATAAGT, the switch fluorescence ratio was 0.9949 ± 0.0042.

As to AGTGGGGCGC, the switch fluorescence ratio came out at 1.29 ± 0.4.

AGCGCCGAGT: the switch fluorescence ratio was 0.973 ± 0.045.

For TCAATAATCG, the switch fluorescence ratio came out at 1.01 ± 0.055.

For CTTTGCTTTT, the switch fluorescence ratio turned out to be 0.968 ± 0.023.

Turning to ACGTTATGTT, the switch fluorescence ratio was found to be 1.1 ± 0.035.

Regarding AATAGTTAGG, the switch fluorescence ratio was determined as 1.02 ± 0.012.

Regarding CGTTATATTT, the switch fluorescence ratio was 1.07 ± 0.14.

Regarding GTGGGACCTT, the switch fluorescence ratio was determined as 1.06 ± 0.069.

Take GTGGGAGCTG: the switch fluorescence ratio turned out to be 0.99 ± 0.0079.

Regarding CGGAGGGAGG, the switch fluorescence ratio turned out to be 0.928 ± 0.091.

For CGCCGGACAT, the switch fluorescence ratio was 1.04 ± 0.0027.

For the sequence TGTAGATGGC, the switch fluorescence ratio was found to be 1.03 ± 0.044.

With AGGGGGTTCG, the switch fluorescence ratio came out at 1.02 ± 0.027.

Take TCCCAGTGCT: the switch fluorescence ratio stood at 1.84 ± 0.21.

On to AGTTCCGGGA, for which the switch fluorescence ratio was 1.02 ± 0.067.

On to TGGCGAACGG, for which the switch fluorescence ratio is 1.01 ± 0.052.

For the sequence GCTAAAACCT, the switch fluorescence ratio is 2.25 ± 0.23.

AGGAGTGGGG: the switch fluorescence ratio worked out at 1 ± 0.022.

For GGACGCCTTT, the switch fluorescence ratio worked out at 0.9753 ± 0.0077.

On to TTTTTTGGGT, for which the switch fluorescence ratio was 0.994 ± 0.024.

As to TTCCAGTTT, the switch fluorescence ratio turned out to be 1 ± 0.04.

Turning to TTAGATTTTA, the switch fluorescence ratio worked out at 0.961 ± 0.034.

As for ATCGGTGAGG, the switch fluorescence ratio was 0.971 ± 0.03.

On to TGGGGTAAGG, for which the switch fluorescence ratio is 1.01 ± 0.022.

For the sequence GTAGTGCGGG, the switch fluorescence ratio turned out to be 0.9536 ± 0.0014.

In the case of CCATGTGACT, the switch fluorescence ratio was 1.034 ± 0.0057.

Turning to AAGTATAGC, the switch fluorescence ratio is 1.02 ± 0.044.

As for AAGGGGGG, the switch fluorescence ratio is 0.994 ± 0.062.

Regarding TCGGAATAGA, the switch fluorescence ratio is 1.22 ± 0.26.

GTGGTAAAGG: the switch fluorescence ratio worked out at 0.9739 ± 0.0091.

As to TTCCGGCTCT, the switch fluorescence ratio stood at 1.61 ± 0.8.

As for CAGACGAGGC, the switch fluorescence ratio worked out at 1.044 ± 0.0037.

On to TCATGGGGGT, for which the switch fluorescence ratio was 0.995 ± 0.028.

As for TTTTGAGACT, the switch fluorescence ratio turned out to be 0.96 ± 0.0084.

CGTTAGGTAT: the switch fluorescence ratio was found to be 0.969 ± 0.033.

In the case of TTTTGGGGGT, the switch fluorescence ratio turned out to be 1.03 ± 0.096.

For the sequence ACCTTAATTA, the switch fluorescence ratio turned out to be 1.1 ± 0.044.

In the case of CGGGTCTAAA, the switch fluorescence ratio was 0.9966 ± 0.0027.

Regarding TTAGGTGTTA, the switch fluorescence ratio came out at 1.03 ± 0.022.

In the case of GGTATAAAGG, the switch fluorescence ratio was 0.996 ± 0.014.

Regarding AAAAAAGGGT, the switch fluorescence ratio stood at 1.02 ± 0.021.

For the sequence TAGGTTGAAC, the switch fluorescence ratio was found to be 0.974 ± 0.05.

As to GGGATTCGAG, the switch fluorescence ratio amounted to 0.987 ± 0.02.

TAAGAGGGGT: the switch fluorescence ratio is 1.03 ± 0.07.

For the sequence CATCTGGTGC, the switch fluorescence ratio worked out at 1.63 ± 0.19.

In the case of CCGTGGAAAC, the switch fluorescence ratio amounted to 1.14 ± 0.026.

Consider GTCAAATGGT, for which the switch fluorescence ratio was 0.972 ± 0.021.

As to ATGGTCGGAT, the switch fluorescence ratio is 0.9804 ± 0.0098.

For CAGTATCTGA, the switch fluorescence ratio was 1 ± 0.0047.

Regarding CCACTCCGGG, the switch fluorescence ratio worked out at 1.192 ± 0.0055.

For CGATGAGGGT, the switch fluorescence ratio was 1.01 ± 0.029.

On to TGATACTGGG, for which the switch fluorescence ratio was 1.06 ± 0.06.

AAAGGCGTAT: the switch fluorescence ratio was found to be 1.008 ± 0.0036.

As to TCAGGGGTTA, the switch fluorescence ratio was found to be 1.03 ± 0.031.

For TATTTGGCAT, the switch fluorescence ratio was 1.036 ± 0.0029.

In the case of GGGTGTAGTC, the switch fluorescence ratio was found to be 1.02 ± 0.043.

For GAGGGCGGGG, the switch fluorescence ratio was found to be 1.05 ± 0.077.

On to TTCCTTATTA, for which the switch fluorescence ratio worked out at 1.02 ± 0.011.

As for TTTAGATCGG, the switch fluorescence ratio is 1.01 ± 0.046.

Regarding CCTTACTTTT, the switch fluorescence ratio was 0.998 ± 0.036.

On to CAGTAGTAGT, for which the switch fluorescence ratio was determined as 1.02 ± 0.0097.

With CAATTGCGCT, the switch fluorescence ratio was 1.01 ± 0.016.

Take TAAAAGGGCT: the switch fluorescence ratio was found to be 0.999 ± 0.011.

In the case of TGCAGGGGTT, the switch fluorescence ratio was 1.05 ± 0.02.

With AGGAGAGGGT, the switch fluorescence ratio was 0.967 ± 0.013.

GCGTAGGGG: the switch fluorescence ratio was 0.967 ± 0.028.

With TTACTTTGCT, the switch fluorescence ratio is 1.003 ± 0.0061.

For ATGATTGATG, the switch fluorescence ratio came to 1.02 ± 0.019.

As for TGACGGTAGC, the switch fluorescence ratio amounted to 1.06 ± 0.056.

As for GATTAACGGT, the switch fluorescence ratio amounted to 1.012 ± 0.0084.

For the sequence TAAGTTGATC, the switch fluorescence ratio came out at 0.989 ± 0.053.

As to ATACACATCC, the switch fluorescence ratio was 1.06 ± 0.061.

For the sequence AAGAGGGGAA, the switch fluorescence ratio came out at 0.988 ± 0.062.

Take AGCTCAATTA: the switch fluorescence ratio was 1.02 ± 0.03.

Take TATATTAGAG: the switch fluorescence ratio was determined as 1.01 ± 0.0023.

As to CAGTAGGCAA, the switch fluorescence ratio amounted to 2 ± 0.15.

With TTACGATGGG, the switch fluorescence ratio was 0.97086 ± 0.00075.

For GTGTGAGGGC, the switch fluorescence ratio is 0.948 ± 0.035.

On to ATTTCTTTCA, for which the switch fluorescence ratio worked out at 1.02 ± 0.033.

For AAAAGACGG, the switch fluorescence ratio came to 1 ± 0.062.

On to ATCAAAATAA, for which the switch fluorescence ratio was determined as 1.06 ± 0.059.

With AAGGGCAGGT, the switch fluorescence ratio worked out at 1.01 ± 0.03.

For the sequence TACTTGTGTG, the switch fluorescence ratio was 0.988 ± 0.011.

Turning to CGATTAGGGA, the switch fluorescence ratio is 1 ± 0.028.

Consider CCCGGGAGTG, for which the switch fluorescence ratio turned out to be 1.02 ± 0.028.

Turning to CAAAAGTGAT, the switch fluorescence ratio is 1.01 ± 0.024.

Consider AGAATCTTGC, for which the switch fluorescence ratio came out at 1.167 ± 0.0026.

Turning to AAGCCGTCGG, the switch fluorescence ratio was 1.02 ± 0.013.

With GCGGGAGTCC, the switch fluorescence ratio came to 1.13 ± 0.2.

As for AGAGTTCCGG, the switch fluorescence ratio amounted to 1 ± 0.029.

As to GATGTTTAAT, the switch fluorescence ratio came to 0.991 ± 0.029.

Take GTGAGTTGCT: the switch fluorescence ratio was found to be 1.002 ± 0.005.

Take TAACTATGTA: the switch fluorescence ratio amounted to 1.02 ± 0.034.

Take TGTCACAAGC: the switch fluorescence ratio was found to be 1.02 ± 0.013.

On to TTGCGCTATT, for which the switch fluorescence ratio came to 1.07 ± 0.018.

Regarding GGTTATAATG, the switch fluorescence ratio came to 1.02 ± 0.012.

CGTATAGGTG: the switch fluorescence ratio is 1.06 ± 0.077.

For the sequence GGAGTGAGGT, the switch fluorescence ratio came to 0.999 ± 0.03.

Turning to TGTGGGGTTT, the switch fluorescence ratio amounted to 1 ± 0.057.

As for TGGGCGGGGC, the switch fluorescence ratio was 0.998 ± 0.018.

Values taken from the supplement of paper PMC10126150.
